Data set [1] concerns the molecule itself. The data set is described as follows: SEC. A general note: Size exclusion chromatography separates by hydrodynamic size, large species first.
Data set [2] deals with the molecule itself. The data set is described as follows: SEC. This is another data set of the same source.

Where two headings read alike, the source gives them in different places.

B1: mouse SIINFEKL‐STINGΔTM (other, chicken | mouse)
chain: GLEQLESIINFEKLTEWTSSLTPAEVSAVCEEKKLNVAHGLAWSYYIGYLRLILPGLQARIRMFNQLHNNMLSGAGSRRLYILFPLDCGVPDNLSVVDPNIRFRDMLPQQNIDRAGIKNRVYSNSVYEILENGQPAGVCILEYATPLQTLFAMSQDAKAGFSREDRLEQAKLFCRTLEEILEDVPESRNNCRLIVYQEPTDGNSFSLSQEVLRHIRQEEKEEVTMNAPMTSVAPPPSVLSQEPRLLISGMDQPLPLRTDLI
Turning to B1, the stoichiometry N (usually a count of units in the complex or per binding partner) in the data set “SEC [1]” was found to be 2; in “SEC [2]”, 4.

(Values after PMC11117022 (Advanced Healthcare Materials, 2022).)
